The record followed here is paper PMC4944837 (Molecular cell, 2007).

Where two headings read alike, the source gives them in different places.

Holding throughout (assay): pull-down
Test [1] has as its target T1, GST-Rb pocket (aa 379-792) (human, UniProt P06400 379-792).
T1 sequence (looked up): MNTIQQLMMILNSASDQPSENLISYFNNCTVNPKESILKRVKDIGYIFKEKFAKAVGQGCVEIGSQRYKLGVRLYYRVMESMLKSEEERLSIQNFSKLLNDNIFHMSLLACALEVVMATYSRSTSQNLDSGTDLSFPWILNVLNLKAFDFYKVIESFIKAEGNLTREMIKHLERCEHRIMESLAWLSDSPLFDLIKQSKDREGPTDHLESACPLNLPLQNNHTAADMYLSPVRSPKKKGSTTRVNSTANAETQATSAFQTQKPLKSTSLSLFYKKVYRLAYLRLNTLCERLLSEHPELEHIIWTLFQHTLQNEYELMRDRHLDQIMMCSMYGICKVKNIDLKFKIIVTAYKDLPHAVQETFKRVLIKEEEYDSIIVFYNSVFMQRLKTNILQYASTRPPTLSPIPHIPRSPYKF

The target in the next test is T2, GST-Rb∆N (aa 379-928) (human, UniProt P06400 379-928).
T2 sequence (looked up): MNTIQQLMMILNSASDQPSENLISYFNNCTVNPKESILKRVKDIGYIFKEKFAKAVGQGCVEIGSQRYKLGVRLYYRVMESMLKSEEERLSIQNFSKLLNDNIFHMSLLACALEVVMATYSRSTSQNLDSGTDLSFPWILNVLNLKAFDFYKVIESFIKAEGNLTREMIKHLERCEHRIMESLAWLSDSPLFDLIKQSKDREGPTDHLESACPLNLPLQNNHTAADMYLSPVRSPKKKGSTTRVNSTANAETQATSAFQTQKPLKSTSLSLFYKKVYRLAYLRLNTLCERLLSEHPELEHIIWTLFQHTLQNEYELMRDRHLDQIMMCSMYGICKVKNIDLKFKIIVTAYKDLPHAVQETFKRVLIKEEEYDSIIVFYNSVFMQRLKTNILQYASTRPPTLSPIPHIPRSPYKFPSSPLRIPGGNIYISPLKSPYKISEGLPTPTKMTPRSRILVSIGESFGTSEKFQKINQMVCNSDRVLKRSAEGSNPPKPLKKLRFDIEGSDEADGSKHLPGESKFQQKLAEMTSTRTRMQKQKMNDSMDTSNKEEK

The target of test [2] is T1, GST-Rb pocket (aa 379-792). The source holds these as a separate data set.

B1: RbN (aa 40-355), Rb N-terminal domain (domain or fragment, human, UniProt P06400 40-355, looked up)
chain: EDLPLVRLEFEETEEPDFTALCQKLKIPDHVRERAWLTWEKVSSVDGVLGGYIQKKKELWGICIFIAAVDLDEMSFTFTELQKNIEISVHKFFNLLKEIDTSTKVDNAMSRLLKKYDVLFALFSKLERTCELIYLTQPSSSISTEINSALVLKVSWITFLLAKGEVLQMEDDLVISFQLMLCVLDYFIKLSPPMLLKEPYKTAVIPINGSPRTPRRGQNRSARIAKQLENDTRIIEVLCKEHECNIDEVKNVYFKNFIPFMNSLGLVTSNGLPEVENLSKRYEEIYLKNKDLDARLFLDHDKTLQTDSIDSFETQR
As to B1, the binding result (in test [1]; with GST-Rb∆N (aa 379-928)) was “binds” each time.

B2: Rb 40-355 ∆Ex5 (domain or fragment, human, UniProt P06400 40-355, looked up)
chain: EDLPLVRLEFEETEEPDFTALCQKLKIPDHVRERAWLTWEKVSSVDGVLGGYIQKKKELWGICIFIAAVDLDEMSFTFTELQKNIEISVHKFFNLLKEIDTSTKVDNAMSRLLKKYDVLFALFSKLERSTEINSALVLKVSWITFLLAKGEVLQMEDDLVISFQLMLCVLDYFIKLSPPMLLKEPYKTAVIPINGSPRTPRRGQNRSARIAKQLENDTRIIEVLCKEHECNIDEVKNVYFKNFIPFMNSLGLVTSNGLPEVENLSKRYEEIYLKNKDLDARLFLDHDKTLQTDSIDSFETQR
Regarding B2, the binding result in test [1] is “binds”.

Regarding NRLTEELGCDEIIDRE (peptide, UniProt Q9Y6B2 172-187, looked up) [EID-1 LxCxE peptide (aa 172-187, LxCxE)], in test [2], the binding result was “binds”.
